{
  "source": "the DeepSol protein solubility set",
  "data": [
    {"experiment": "soluble on expression in E. coli; label from the status in PepcDB or PDB records", "values": [
      {"sequence": "MCKDVSGQNLLVAPDAINHHVKTCRENMRYMHYIAPEYENNTELTSAADIYSFGICSLEIAVIGGLSGCQNGSSEGPVTEDVIEKAIRSLEDPMQQDFIRQCLRKDPAERPSARELLFHQILFEVHSLKLLSAHAIVDSKKYEDVSESAFRIKDNETIAATSKLREMAYCQVAAFQVDLEKFLDDVRNGIYPLTAFAPLAHQPSTTLRAYSNTNPSTLITTDISAPSSTHPSANSTITAETSVNTSLPGQSSQPSGTTTNTNGPSSIGKSASPEAVDKKIGEVTSTESTSKVEVEVNGANVTIGSSNGRDAGSPTPEEEGEPNGERDMRLENRHILEINVHIENEEMSIVLLLEDQMHRQLTTSINKGDNPETLTENLITHGFMCQLDSEGVEKAIAVAFDIRAARIAEGVQEEENETSTRESNSEAPIEHGTSSSITNSVKPIVDSVAPSSQTPTTTTSS", "soluble on expression in E. coli": "not soluble"},
      {"sequence": "MCLAVPGKVIEVNGPVAVVDFGGVKREVRLDLMPDTKPGDWVIVHTGFAIEKLDEKKAMEILEAWAEVEKAMEGF", "soluble on expression in E. coli": "soluble"},
      {"sequence": "MCLILTAWHAHPAYALVVAANRDEFYDRPAAPLAWWSDAPHVLAGRDLAQVVGHAGTWMGMTRDGRFAALTNYRAPSERRPDARSRGELVANFLAAEDASIPAYLDQLKARNGVYNGYNLLTATRDELWWTSNRAEAPRQLAPGVYGLSNALLDTPWFKVRHRVAAFAEALAADTGRHGNAIDVARYLDLLAETREAPLGALPATGVAPEWEKLLSAAFIRSPRYGTRASTVLRIRHDGCFDVTERRFDAQGQIGETRYLGVLDAVTQADTPLEHHHHHH", "soluble on expression in E. coli": "not soluble"},
      {"sequence": "MCLIVFAWRPGHAQPLIVAANRDEFYARPSLPLGQWPELPQIHAGRDLEAGGTWLGVGAEGRFAALTNIRNPHQPPARRSRGELVARFLAGDVPLDDYLRDVVGRSVEYAGFNLLLGNAEQLWHYNARDPQPQRLEPGVYGLSNAGLDTPWPKLLKARAALQEVLHDPQPQALLALLSDPQTAPFADLPDTGVGLATESLLSSVFIASPSYGTRASTALIVHADGSRHLLERSFGPYGGHLGEVELKVLEHHHHHH", "soluble on expression in E. coli": "not soluble"},
      {"sequence": "MCMPTKKYTEKFKISLVYLYRKGTSKQTLEDFGVSSASLSRWIKWYDVTDVDLNEAANILQMYELKKQKDKLEAEVLELTKAIQLFNSDLNTVLEHHHHHH", "soluble on expression in E. coli": "soluble"},
      {"sequence": "MCNTNMSVPTDGAVTTSQIPASEQETLVRPKPLLLKLLKSVGAQKDTYTMKEVLFYLGQYIMTKRLYDEKQQHIVYCSNDLLGDLFGVPSFSVKEHRKIYTMIYRNLVVVNQQESSDSS", "soluble on expression in E. coli": "soluble"},
      {"sequence": "MCRALQEQREASAAIAREILGDIKLNVTDGEFAVSIAQQEALESYVDLLEKQEQELIAELHRTVLRLSAKIAATRHLRNLAIREAGKQQGMRMAEDTTERGERQHEEA", "soluble on expression in E. coli": "not soluble"},
      {"sequence": "MCRYARSYLLHAFDYTLFVKARLNMAFMISMPAIELAGLTIQVCQFDPQQFDEDQQHYLAPPTYHSLHKAVVKRQAEFVAGRKLAQQALKQIGQGYDRPIAIGTHREPLWPAGITGSIAHCDGWAVCTVLKAEHLSLGIDIEHRLAHQTASEVQAIIGTAQEWALLAQQFDLASAVTLLFSAKESLFKALFPQVHLYLDFCDAQLSSLEPNKMSFTLTRVPNAAQQSCEVYFRWFEQQRVLTVSVLPMLGKIEYHVPTLPT", "soluble on expression in E. coli": "not soluble"},
      {"sequence": "MCSGYFELKQMFPIIRKIFVEKSNCSSNTHHSKRSIGETAGLKTGERIVGVNGQLIYPTNTHKEVVPLMKQNAMKTTLLEVH", "soluble on expression in E. coli": "not soluble"},
      {"sequence": "MCSHGHSHNCAAEHIPEVPGDDVYRYDMVSYIDMEKVTTLNESVDGAGKKVFKVMEKRDDRLEYVESDCDHELLFNIPFTGHVRLTGLSIIGDEDGSHPAKIRLFKDREAMSFDDCSIEADQEIDLKQDPQGLVDYPLKASKFGNIHNLSILVDANFGEDETKIYYIGLRGEFQHEFRQRIAIATYESRAQLKDHKNEIPDAVAKGLF", "soluble on expression in E. coli": "not soluble"},
      {"sequence": "MCSKNSENSNVPRAKSDFITPNCSENTKLFMIFQSRKSIICEVCGKKYSSKSALAKHKRTHETDKRCKIKLIFGSSQKKTQKLYFLQKLSFLDADFFSILERNLLIFGYFAIFFSQKNTYISRFTCPMCYASFDLSDPFKIHLRKHDNLKPFGCSYCFKQFSSRSVCRRHVQLMHENQKRAGDGDNDDDDDID", "soluble on expression in E. coli": "not soluble"},
      {"sequence": "MCYIEITKDNIEDNHICCALSTKQYEHAVNEKKRWLKARMDEGLVFYRLHERAKVFIEYLPANEAWVPINAPNFMYINCLWVSGRYKNNGHAKRLLDKCIADAKACGMDGIIHIAGKKKLPYLSDKHFFEHMGFTLQDEAAPYFQLMALTWNGLADSPAFKSQVKSDSINEKGITIYYTAQCPFAVGMINDLRELTEKKGVQFQSIQLSSKEEAQKSPAIWTTFSVFFDGRFVTHEIMSINKFEKLLNTLA", "soluble on expression in E. coli": "not soluble"},
      {"sequence": "MDAAKDLRMTQLLQDPHSVREEREKVLEVAIGREVRAFRKQQGITVAELSKLTDLSIGMLSKIENGNTSPSLTTLQTLANALSVPLTAFFKGYEEKREAIHTKAGQGLEIERAGTRAGHQYSLLGHIGSNSSGVIVEPYLITLSTESDTFKTFQHDGIEMIYMLEGKVDYLHGSEIYPLEPGDTLFFDADAPHGPERLVELPTRYLSVICYPQQKKG", "soluble on expression in E. coli": "not soluble"},
      {"sequence": "MDADASTITPEELDFIRQRALRRFDSIVPTAGREGTEIASDIFKGRTLAIYTSGGDSQGMNSAVRSITRMAIYCGCKVYLIYEGYEGMIEGGDFIKEATWNTVSDIIQQGGTIIGSARSSEFRTREGRLKAATNLINRGIGRLVCIGGDGSLTGANTFRLEWTDLVQELVKNQRVTAAAAKKIPYIQIVGLVGSIDNDFCGTDMTIGTDSALQRIISSIDAVVATAQSHQRAFVIEVMGRHCGYLALVAALASEADFCFIPEWPAPENWRDVLCDKLSQMRSEGQRLNIIIVAEGAIDRDGKAITAEDVKTAVKEKLKYDTRVTILGHVQRGGAPSAFDRLLGCRMGAEAVFALMEMTEESEPCVISIDGNVMVRVPLLKCVERTQMVQKAMADKDWTTAVMLRGRSFQRNLETYKLLTKMRTVEKDNLSEGHKFNVAVINVGAPAGGMNAAVRSYVRMALYHQCTVYGIEDSFEGLANGSFKQFKWSDVTNWAMNGGSFLGTQKSLPTEKTMPQLAAQLKKHNIQALLLVGGFEAYHSTIILAENREKYPEFCIPMCVIPCTISNNVPGTMVSLGSDTAINEICQMIDKIKQSATGTKRRVFIVETMGGYCGYLATLSALSSGADNAYIFEEPFTVQDLSDDVDVILSKMEVGAKRYLVVRNEWADKNLTTDFVQNLFDSEGKKNFTTRVNVLGHVQQGGSPTPFDRNMGTKLAARALEFLLIQLKENLTADNKVIAKSAHTATLLGLKGRKVVFTPVQDLKKETDFEHRLPSEQWWMALRPLLRVLARHRSTVESSAILESVEEESADSHMF", "soluble on expression in E. coli": "not soluble"},
      {"sequence": "MDAEEIRAIFRFSAMEKNMIYSFGIQGDLFLPFLLSLKSGGSWSYATEETKSIAVKDVITYYDEESKTGYTLEKIYFFIDPEVVAKEGVVRRLEKCGTKEERELVERPYIIALRAKRIIFAEVNPGSRKITVRELEKKCIQLKGTPAYSAAHELEHLKKGEVEGIPLWSFEYVKDQ", "soluble on expression in E. coli": "not soluble"},
      {"sequence": "MDAELFPRTRAETAPGAVHLPDWLSPGQQRELLDACREWARPPAGLRTVRTPGGGTMTARQVCLGRHWYPYGYAATAVDGDGAPVKPFPARLDGLARRAVTDALGAEAVAPAPYDIALINFYDADARMGMHRDADERTDAPVVSLSLGDTCVFRFGNPETRTRPYTDTELRSGDLFVFGGPSRLAYHGVPRVHPGTAPPELGLRGRLNITLRVSGFLEHHHHHH", "soluble on expression in E. coli": "not soluble"},
      {"sequence": "MDAKHIEKVFVKKVPAKSNKAQVKYPFDENSVNVLIIGLDKASNRSTYDLHRTDTILFLNINFKDKKVKGISIPRDTLTEIYKVGKWDKINSAFGYGGGEKEEGFFYTMETVSKLLGGMPIEYYVGFDLDAVRKVVNILGGVYVNVEVPVKVKTKWVNIDLKPGYQKLNGIETLYYALWRKTPGGDIDRIKRDKELILSVFEQLKESNKIITLPEIYWKIRRHFYTNLSLQQITSLAYFAQNMKKEDIVFESIPGDYFNYMGVSYWKPDYEGIKKLVKDLFGYDIEIDLKMPEKYKYARRIIVKAKKENNISYSHTNKSYSTESSQNQNSQSNSEVNLVQKQTETIENSTQSSSPFDAQWRNSSEDTQTLPPENDSQTTQGTQQQQATTESEIQVDTPSTSSDVVSNVYGGRLEHHHHHH", "soluble on expression in E. coli": "soluble"},
      {"sequence": "MDATMVFKRLLGSLGVGAPTVDTVLDPAPVLPGGTLTGQVHLEGGQTDFDIEHITLELVARVEAEHEDGEDEGVVVFDRFTVGGGFRLGAEEPRSVPFRVTLPWETPITELYGQPLGIVLGVRTELAVADAKDKGDLDQLTVTALPVQEAVLEAFGQLGFGFGSADLEYGHIGGTGQQLPFYQEIELVPAPQYADRLNEIELTFLAGPGGLEVVLEADKRGGLLSSGHDAVTRFSVGHHDARDWAAEVEGWVRQLVEHHTTYGAPGTHGHSTPYAGHGHHDPHGNGGRHHDDHRSGPGVGTAVAAGAAGLAVGVVGGMVAAEVVDEVGDFFEGDDEEEDEG", "soluble on expression in E. coli": "not soluble"},
      {"sequence": "MDAVNKFSVENWYPHLRKHTFKSHFITLNYNDIHYLMGNIPPDYDSSKLESIFNKILSEFNNKEVFMRLSTRSPKDSKFLFEEASTIMSKDFVYWNENDNKHQQLVSFVASMLKAMKIKSGRKIIETIAQSPRVYNDLLALVSSSNQSDCTTNVILREWHDIRPDHEFRVFVSRRHRKESIVTAISQYFHFLYFDKSPADCFNFLDEEDKKAVIKKFENYVLKSVDPDVAKFLNFSSEQDDDESSDCIREYIVDLALIPVSQYHGEITDENIIEIGANTYVMVVIELNPFAPAATGSGLFNWKNDLMMLWGKASCDYPVFKYRTTPREDLQSVSLLPSNYESVIKSALIKRLETLEHHHHHH", "soluble on expression in E. coli": "not soluble"},
      {"sequence": "MDCDIASYHVDSFDFLVSKGCQFAAQAVPAEKFRLKNGDAVTMKFTSAQLHKPTLDTGAKLTSDTLPLLPAECRQRGLTYAGNLKVGIDVHVNGSRLDIIEIILGKVPIMLRSEGCHLRGMSRKELVVAGEEPIEKGGYFIVNGSEKVIRLLIANRRNFPIAIIRKTFKEKGKLFSEFGVMMRSVKENHTAVMMTLHYLDTGTMQLALQFRREIFYVPLMYIVKALTDKNDAVISAGFKRGRNQDQFYSSCILNMLAQCQEEEILNQEAAIRAIGSRFRVAVSDRVAPWEDDLEAGRFIIRECVLIHLDSDEEKFHTLAYMTQKLIALVKGECAPETPDNPQFQEASVSGHILLLILRERMENIIGMVRRKLEYMSSRKDFILTSAAILKALGNHTGGEITRGMAYFLATGNLVTRVGLALQQESGFSVIAERINQLRFVSHFRAIHRGAFFMEMRTTDVRKLRPEAWGFICPVHTPDGAPCGLLNHVTASCRIVTDLSDNSNVPSLLAELGMYTHKTVALAPPGEELYPVLMNGRFLGYVPITKAASIERYLRCAKVAKDARIPYTSEIALVRRSTDIKNIQTQYPGIYILSDAGRLIRPVRNLAMDAVEHIGTFEQVYLSVVLDPEEAEPGVTMHQELHPSCLFSFAGNLIPFPDHNQSPRNVYQCQMGKQTMGTAVHAWHSRADNKMYRLQFPQQPMLKLEAYEKYEMDEYPLGTNACVAVISYTGYDMEDAMTINKASYQRGFAHGTVIKVERINLVTERERKTIFYRNPREEIKTVGPDGLPIPGRRYFLDEVYYVTFNMETGDFRTHKFHYAEPAYCGLVRIVEQGEGDSGAKHALIQWRIERNPIIGDKFASRHGQKGINSFLWPVESLPFSETGMVPDIIFNPHGFPSRMTIGMMIESMAGKAAATHGENYDASPFVFNEDNTAINHFGELLTKAGYNYYGNETFYSGVDGRQMEMQIFFGIVYYQRLRHMIADKFQVRATGPIDPITHQPVKGRKKGGGIRFGEMERDAIIAHGTSFVLQDRLLNCSDRDVAYACRRCGSLLSVLMSSRAGSHLLKKKRKDDEPLDYTETQRCRTCDKDDQVFLLQVPRVFRYLTAELAAMNVKIKLGIEHPSKVTGS", "soluble on expression in E. coli": "not soluble"},
      {"sequence": "MDDATKSSLKAIPLCKTKASPRDGDLWIERLKEEYEAIIAAVQNNKDCDRDWFQLESNERGTKWFGKCWYFHNMVKYEFDVEFDIPITYPVTAPEIALPELDGKTAKMYRGGKICLSEHFKPLWARNTPKFGIAHAFALGLGPWMAVEIPDLIEKGLIQPKA", "soluble on expression in E. coli": "not soluble"}
    ]}
  ]
}
